Assay results taken from patent publication US20180312587A1 (ADURO BIOTECH HOLDINGS EUROPE B V, published 2018).

B1: hSIRPα.50A (antibody, V domains shown)
VH: QVQLQQSGPELVKPGASVRISCKASGFTFTNYYIHWVKQRPGQGLEWIGWIYPGNVNTKYNEKFKAKATLTADKSSTTAYMQLSSLASEDSAVYFCARPTIIATDFDVWGAGTTVTVSS
VL: DIVMTQSHKFMSTSVGDRVNITCKASQGVGTAVGWYQQKPGQSPRLLIYWASTRHTGVPDRFTGSGSGTDFSLAISNVQSEDLADYFCQQYSTYPFTFGGGTNLEIK
notes: light chain constant domain not tied; also called mouse hSIRPα.50A; hSIRPα.50A.mIgG1
B2: hSIRPα.40A (antibody, mouse IgG1, kappa, V domains shown)
VH: EVQFQQSGTVLARPGTSVKMSCKASGSTFTSYWMHWVKQGPGQGLQWIGAIYPVNNDTTYNQKFKGKAELTVVTSTSTAYMEVSSLTNEDSAVYYCTRSFYYSLDAAWFVYWGQGTLVTVSA
VL: DIQMTQSPSSLSASLGERVSLTCRASQDIGSRLNWLQQEPDGTIKRLIYATSSLDSGVPKRFSGSRSGSDYSLTISGLESEDFVDYYCLQYASSPFTFGGGTKLEINR
notes: mouse antibody, full chains without signal peptide; also called mouse hSIRPα.40A
B3: KWAR23 (antibody, V domains shown)
VH: EVQLQQSGAELVKPGASVKLSCTASGFNIKDYYIHWVQQRTEQGLEWIGRIDPEDGETKYAPKFQDKATITADTSSNTAYLHLSSLTSEDTAVYYCARWGAYWGQGTLVTVSS
VL: QIVLTQSPAIMSASPGEKVTLTCSASSSVSSSYLYWYQQKPGSSPKLWIYSTSNLASGVPARFSGSGSGTSYSLTISSMEAEDAASYFCHQWSSYPRTFGAGTKLELK

What was measured:
human SIRPα variant 1 [1] = target: T1, human SIRPα variant 1 (human, UniProt P78324 31-504); assay: CELISA, CHO-K1 transfectants
T1 construct: full length ORF on transfected CHO-K1 or HEK293 cells; entry includes the signal peptide; also called hSIRPαV1; SIRPαV1
T1 sequence (P78324 31-504 limits assumed, change not shown): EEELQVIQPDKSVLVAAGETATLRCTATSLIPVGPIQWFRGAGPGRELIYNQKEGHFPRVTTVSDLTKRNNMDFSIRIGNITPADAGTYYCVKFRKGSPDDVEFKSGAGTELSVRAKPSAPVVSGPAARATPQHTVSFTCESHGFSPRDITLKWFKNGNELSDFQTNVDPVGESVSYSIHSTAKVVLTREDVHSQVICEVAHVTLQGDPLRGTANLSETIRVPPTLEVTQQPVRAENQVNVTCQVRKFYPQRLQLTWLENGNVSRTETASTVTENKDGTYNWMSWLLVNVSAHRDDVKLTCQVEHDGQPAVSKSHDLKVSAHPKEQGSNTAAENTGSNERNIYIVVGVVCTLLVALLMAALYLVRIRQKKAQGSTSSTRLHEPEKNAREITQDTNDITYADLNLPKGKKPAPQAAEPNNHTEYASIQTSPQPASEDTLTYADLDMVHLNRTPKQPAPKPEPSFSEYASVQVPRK
Protocol: (§1) Reactivity was confirmed using CHO-K1 cells (ATCC CCL-61) that had been transiently transfected, using Lipofectamine 2000, with cDNA encoding the full length open reading frame of hSIRPαV1, hSIRPαV2, hSIRPβ1, hSIRPβL, and hSIRPγ subcloned into the pCI-neo vector (Promega, Madison, Wis.). CHO-K1.hSIRPαV1, CHO-K1.hSIRPαV2, CHO-K1.hSIRPβ1, CHO-K1.hSIRPβL, and CHO-K1.hSIRPγ cells were seeded in culture medium (DMEM-F12 (Gibco) supplemented with 5% New Born Calf Serum (BioWest) and Pen/Strep (Gibco)) in 96-well flat-bottom tissue culture plates and incubated at 37° C., 5% CO₂ and 95% humidity for 24 hours. Subsequently, culture medium was removed and cells were incubated for 1 hour at 37° C., 5% CO₂ and 95% humidity with purified hSIRPα antibodies (used at 10 μg/mL and dilutions thereof). Next, cells were washed with PBS-T and incubated for 1 hour at 37° C., 5% CO₂ and 95% humidity with goat-anti-mouse IgG-HRP (Southern Biotech). Subsequently, cells were washed three times with PBS-T and immunoreactivity against hSIRPαV1, hSIRPαV2, hSIRPβ1, hSIRPβL, and hSIRPγ was visualized with TMB Stabilized Chromogen (Invitrogen). Reactions were stopped with 0.5 M H₂SO₄ and absorbances were read at 450 and 610 nm.
(§2) The KWAR23 antibody cross-reacts with all members of the SIRP receptor family tested: it binds to hSIRPαV1, hSIRPαV2, hSIRPβ1, hSIRPβL, and hSIRPγ.

human SIRPα variant 2 [2] = target: T2, human SIRPα variant 2 (human, UniProt P78324 31-504); assay: CELISA, CHO-K1 transfectants
T2 construct: full length ORF on transfected CHO-K1 cells; also called hSIRPαV2; SIRPαV2
T2 sequence (P78324 other isoform, or with tags, fused parts or gaps mutant limits assumed): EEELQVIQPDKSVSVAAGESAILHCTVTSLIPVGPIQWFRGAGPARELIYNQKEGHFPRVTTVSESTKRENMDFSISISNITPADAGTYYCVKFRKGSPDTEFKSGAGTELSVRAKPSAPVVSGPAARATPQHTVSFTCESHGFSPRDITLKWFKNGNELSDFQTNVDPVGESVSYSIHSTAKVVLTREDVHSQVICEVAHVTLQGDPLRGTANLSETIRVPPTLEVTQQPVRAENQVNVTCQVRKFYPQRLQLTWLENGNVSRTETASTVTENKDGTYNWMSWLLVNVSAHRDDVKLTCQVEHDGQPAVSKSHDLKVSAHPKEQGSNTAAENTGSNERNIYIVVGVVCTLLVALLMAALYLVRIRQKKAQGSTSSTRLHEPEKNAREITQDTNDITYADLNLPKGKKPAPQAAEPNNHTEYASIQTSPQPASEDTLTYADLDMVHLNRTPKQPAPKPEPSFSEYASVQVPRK
Protocol: as §1, §2

human SIRPγ [3] = target: T3, human SIRPγ (human, UniProt Q9P1W8 29-387); assay: CELISA, CHO-K1 transfectants
T3 construct: on transfected CHO-K1 cells; also called hSIRPγ
T3 sequence (Q9P1W8 29-387 limits assumed): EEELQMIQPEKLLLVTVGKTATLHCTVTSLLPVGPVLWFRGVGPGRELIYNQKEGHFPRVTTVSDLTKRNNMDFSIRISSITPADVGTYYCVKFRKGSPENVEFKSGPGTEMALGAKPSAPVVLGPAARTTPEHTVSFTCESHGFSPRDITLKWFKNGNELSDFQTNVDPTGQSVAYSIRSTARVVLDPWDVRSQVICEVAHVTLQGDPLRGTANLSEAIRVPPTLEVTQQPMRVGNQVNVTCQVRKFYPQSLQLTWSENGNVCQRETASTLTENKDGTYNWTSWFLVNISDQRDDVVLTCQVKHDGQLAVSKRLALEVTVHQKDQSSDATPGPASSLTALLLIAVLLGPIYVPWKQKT
Protocol: as §1, §2

[4] = target: T4, hSIRPβ1 transcript variant 3/hSIRPβL (human, UniProt Q5TFQ8 30-398); assay: CELISA, CHO-K1 transfectants
T4 construct: also called human SIRPβL
T4 sequence (Q5TFQ8 30-398 limits assumed, change not shown): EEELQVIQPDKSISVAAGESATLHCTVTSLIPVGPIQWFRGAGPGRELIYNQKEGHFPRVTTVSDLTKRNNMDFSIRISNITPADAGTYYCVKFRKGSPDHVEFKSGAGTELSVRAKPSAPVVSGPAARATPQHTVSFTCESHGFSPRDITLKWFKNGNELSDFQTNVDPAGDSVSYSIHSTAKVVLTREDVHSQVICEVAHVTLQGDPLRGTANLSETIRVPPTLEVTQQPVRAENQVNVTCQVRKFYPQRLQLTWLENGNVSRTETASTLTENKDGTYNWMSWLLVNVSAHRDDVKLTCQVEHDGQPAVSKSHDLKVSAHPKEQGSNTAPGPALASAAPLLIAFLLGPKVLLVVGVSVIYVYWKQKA
Protocol: as §1, §2

human SIRPα variant 1 [5] = target: T1, human SIRPα variant 1; assay: CELISA, CHO-K1 transfectants, domain exchange study
Description: (§3) Based on the fold of SIRPα/β1/γ, the extracellular region can be subdivided into three separate domains: the Ig-like (immunoglobulin-like) V-type (IgV), Ig-like C1-type (IgC1), and Ig-like C2-type (IgC2) domain. The IgV domain is also known as the ligand-binding N-terminal domain of SIRPα and SIRPγ (which binds to CD47). The human SIRPβ1/γ mutants were designed based on the full length hSIRPβ1 sequence (SEQ ID NO: 38) and each individual Ig-like domain was substituted for the equivalent domain of human SIRPγ (SEQ ID NO: 40). […] Binding of hSIRPα.40A to the exchange mutants was tested using CELISA. To this end, CHO-K1 cells were transiently transfected, using Lipofectamine 2000, with the pCI-neo vectors encoding hSIRPαV1, hSIRPαV2, hSIRPβ1, hSIRP-VγC1βC2β, hSIRP-VβC1γC2β, and hSIRP-VβC1βC2γ, respectively. The transfected cells were cultured at 37° C., 5% CO₂ and 95% humidity in medium (DMEM-F12 (Gibco) with 5% New Born Calf serum (Biowest) and Pen/Strep (Gibco)) until confluent. Subsequently, cells were trypsinized and seeded in 96-well flat-bottom tissue culture plates and cultured at 37° C., 5% CO₂ and 95% humidity in culture medium until confluent. Then, culture medium was removed and cells were incubated for 1 hour at 37° C., 5% CO₂ and 95% humidity with hSIRPα.40A, hSIRPα.50A, and anti-hSIRPα clone SE5A5 antibodies. Next, cells were washed with PBS-T and incubated for 1 hour at 37° C., 5% CO₂ and 95% humidity with goat-anti-mouse IgG-HRP conjugate (Southern Biotech). After that, cells were washed three times with PBS-T and anti-hSIRPα immunoreactivity was visualized with TMB Stabilized Chromogen (Invitrogen). Reactions were stopped with 0.5 M H₂SO₄ and absorbances were read at 450 and 610 nm.

human SIRPα variant 2 [6] = target: T2, human SIRPα variant 2; assay: as above
Description: as §3

human SIRPα variant 2 [7] = target: T2, human SIRPα variant 2; assay: CELISA, CHO-K1 transfectants; average of two experiments
Protocol: (§4) The binding specificity of antibody hSIRPα.50A to hSIRPα was compared antibody KWAR23 (Canadian Patent 2939293 A1), in a CELISA format. CHO-K1 cells were transiently transfected with hSIRPαV1, hSIRPαV2, hSIRPβ1, and hSIRPγ (GenBank accession: NM_018556.3) (SEQ ID NO: 39) cDNAs. Subsequently, hSIRPα binding was assessed by CELISA using CHO-K1.hSIRPαV1, CHO-K1.hSIRPαV2, CHO-K1.hSIRPβ1, and CHO-K1.hSIRPγ cells. Detection of bound antibody was performed with goat-anti-mouse IgG-HRP (Southern Biotech) for mouse antibodies including hSIRPα.50A and control antibodies or, alternatively, with goat-anti-human IgG-HRP conjugate (Jackson Immuno Research) for the KWAR23 antibody. KWAR23 (SEQ ID NO: 130; SEQ ID NO: 131) was expressed as a chimeric human IgG4 kappa antibody in CHO cells. As shown in FIG. 2 and the following Table 9, KWAR23 antibody cross-reacts with all members of the SIRP receptor family tested: it binds to hSIRPαV1, hSIRPαV2, hSIRPβ1, and hSIRPγ.

human SIRPγ [8] = target: T3, human SIRPγ; assay: as above
Protocol: as §4

human SIRPα variant 1 [9] = target: T1, human SIRPα variant 1; assay: flow cytometry, blockade of DyLight488-hCD47/Fc binding to U-937 cells
Method in brief: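 THP-1 or U-937 monocyte cells were placed in 96-well round-bottom plates and incubated at 4 °C for 45 minutes in PBS/1% BSA containing FcR Blocking Reagent and a dilution series of anti-SIRPα antibody. After a further wash, cells were resuspended with 0.1 μg/mL DAPI, read by flow cytometry and analyzed in FlowJo. IC50 is defined as the antibody concentration that gives half-maximal inhibition of CD47/Fc binding.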

| Binder | EC50 (human SIRPα variant 1 [1]) [nM] | EC50 (human SIRPα variant 2 [2]) [nM] | EC50 (human SIRPγ [3]) [nM] | EC50 [4] [nM] | EC50 (human SIRPα variant 1 [5]) [nM] | EC50 (human SIRPα variant 2 [6]) [nM] | EC50 (human SIRPα variant 2 [7]) [nM] | EC50 (human SIRPγ [8]) [nM] | IC50 (human SIRPα variant 1 [9]) [nM] |
| --- | --- | --- | --- | --- | --- | --- | --- | --- | --- |
| B1 | 1.63 | 1.63 | 1.48 | 0.639 | 0.968 | 0.821 | 1.3 | 1.25 | 19.5 |
| B2 |  |  |  |  | 0.133 | 0.101 |  |  | 1.34 |
| B3 | 0.067 | 0.062 | 0.043 | 0.097 |  |  | 0.051 | 0.04 |  |
